Measured values reported in the nanobody polyreactivity screen of Harvey et al. (2022).

Assay: yeast display, Sf9 membrane polyspecificity reagent, FACS + sequencing; frameworks hold sequencing errors
In short: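 Using colony PCR, genes from sorted yeast display clones were amplified, then sequenced on MiSeq at 2 × 250 and filtered by CDR length. The clones had been stained with 10% biotinylated, detergent-solubilized Sf9 membrane reagent for 1 hour at 4 °C and sorted by FACS into low and high (top ~1%) gates on anti-HA and streptavidin fluorescence. Polyreactivity labels come from the gate of origin.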

Sequence | polyreactivity (PSR sort gate)
QVQLVESGGGLVQAGGSLRLSCAASGSTFSPNAMGWYRQATGKERELVAAITYRGANTYYADSVKGRFTISRDNAMITVYFQLNSLKPEDTAVYYCAPEYAYHHVGFGYWRQGTQVTVSS | low polyreactivity
QVQLVESGGGLVQAGGSLRLSCAASGFIFVWYAMGWYRQAPGKERELVAAINGGGRTNYADSVKGRFTISRDNAKYTVYLQMNSLKPEDTAVYYGAAVSYYKSYGEFDYWGQGTQVTVSL | high polyreactivity
QIQLVESGGGLDQAGGSLRLSCAASGSNFVWNAMGWSRQAPGKERELVAAISYTDGSTYYADSVKGRFTISRDNAKNTVYLQMNSLKREDTAVYYCAAAITPSYTGSQYDYWGQGTQVTVSS | low polyreactivity
QVQLVESGGGLVQAGGSLRLSCAASGSIFFYYAMGWYRQAPGKERELVATINWSGGSTYYADSVKGRFTISRDNAKNTVYLQMNSLKPEDTAVYYCAAKDITLPGTMDSWGQGTQVTVSS | low polyreactivity
QVQLVESGGGLVQAGGSLRLSCAASGSIIAYNAMGWYRQAPGKERELVAAISYSGDGTYYADSVKGRFTISRDNANNTVYLQMNSLKPEDTAVYFCDTQIYPLVFYQGDWNDYWGQGTQVTVSS | low polyreactivity
QVQLVESGGGLVQAGGSLRLSCAASGRIFDYAMGWYRQAPGKERELVAAISGSGGSTYYADSVKGRFTISRDNAKNTVYLQMNSLKPEDTAVYYCSTSGPQYYSRNFDYWGQGTQVTVSS | low polyreactivity
QVQLVESGGGLVQAGGSLRLSCAASGSISSVNAMGWYREAPGKERELVATISSGGSTYADSVKGRFTISRDNAKNTVYLQMNSLKPEDTAVYYCATYFVAYTFYYRWYRSYASFYYWGQGTQVTVSS | low polyreactivity
QVQLVESGGGLVQAEGSLRLSCAASGSTLLYAMGWYRQAPGKERELVAAISIGDSTNYADSVKGRFTISRDNAKNTVYLQMNSLKPEDTAVYYCNADQGSNYYWGQGTQVTVSS | low polyreactivity
QVQLVESGGGLVHAGGSLRLSCAASGRTFRAYAMGWYRQAPRKERDLVAAISGGGGSTYYADSVKGRFTISRDNAKNTVYLQMNRLKPEYTAVYYCAVKGTQKLAKYNYWGQGTQVTVSS | high polyreactivity
QVQLVESGGGLVQAGGSLRLSCAASGSTFRPNAMGWYRQAPGKERELVATIRTSGGTTYYADSVKGRFTISRDNAKNTVYLQMNSLKPEDTAVYYCAATKFGSSYDYWGQGTQVTVSS | low polyreactivity
QVQLVESGGGLVQAGGSLRLSCAASGLTFPDYAMGWYRQAPGKERELVAAITIDGSTYYADSVKGRFTISRDNAKNTVYLQMNSLTPEDTAVYYCNAQVGVPYAMYYWGQGTQVTVSS | low polyreactivity
QVQLVESGGGLVQAAGSVRLSCAASGITFTQYAMGRYRHAPGKESECVAGITFSGSSTYYADSVKGRFTISRDNSKNTVYLQMNSLKPEDTAVYYCAAESWYKYIYGYPRLFDYWGQATQVTVSS | low polyreactivity
QVQLVESGGGLVQAGGSLRLSCAASGSTFGINAMGWYRQAPGKERELVASITRRGGSTYYADSVKGRFTISRDNAKNTVYLQMNSLKTEDTAVYYFNKTYRYGTPLYDYWGQGTQVTVSS | high polyreactivity
QVQLVESGGGLVQAGGSLRLTCAASGRIFRVNTMGWYRQAPGKERELVATINGRGGSTYYADSVKGRFTISRDNAKNTVYLQMNSLKPVDTSVYYCAARARTTRSATYDYWGQGTQGTVSS | high polyreactivity
QVQLVESGGGLVQAGGSLRLSCAASGSTLDSNAMGWYRQAPGKERELVAGIDWSGGSTYADSVKGRFTISRDNAKNTVYLQMNSLKPEDTAVYYCAKVSRYVQPYSRFDYWGQGTQVTVSS | low polyreactivity
QVQLVESGGGLVQAGGSLRLSCAASGLIFRYSGMGWYRQATGKERELVAAIRWSAGSTYYADSVKGRFTISRDNAKNTVYLQMNSLKPEDTAVYYCAARAPVAGYKYRYDYWGQGTQVTVSS | high polyreactivity

Sequence | polyreactivity (PSR sort gate)
QVQRVESGGGLVQAGGSLRLSCAASGLTFPSYAMGWYRQAPGKERELVATISNGSSTYYADSVKGRFTISRDNAKNTVYLQLNSLKPEDTAVYYCAKDYYYSRNPLYGHDYWGQGSQVTVSS | low polyreactivity
QVQLVESGGVLVQAGGSLRISCAASGNTFVHYAMGWYRQAPGKEREFVAAISSSGGSTYYADSVKGRFTISRDNAKNTVYLQMNSLKPEDTAVYYCAAGGWPYSGGWFFQPNYDYWGQGTQVTVSS | low polyreactivity
QVQLVESGGGLVQAGGSLRLSCAASGSTFILYAMGWYRQAPGKERELVAAISKRGGSTYYADSVKGRFTISRDNATHTVYFQLKSLKPEDTAVYYLNKKNPQDLTENGYWGQGTEVTVSS | high polyreactivity
QVQLVESGGGLVQAGGSLRLSCAASGSTFVLYAMGWYRQAPGKERELVATISSGGSTYYADSVKGRFTISRDNAKNTVYLQMNSLKPEDTAVYYCAASYSRFVDWIGDPGYDYWGQGTQVTVSS | low polyreactivity
QVQLVESGGGLVQAGGSLRLSCAASGSTFAINAMGWYRQAPGKERELVAAMSSSGSTNYADSGNGRFTISRDNAKNTVYLQMNSLKPEDTAVYYCAADRVWGTPQAYVPSQFDYWGQGTQVTVSS | low polyreactivity
QVQLVESGGGLVQAGGSLRLSCAASGSIFGGDGMGWYRQAPGKERQLVAAITSGSSTYYADSVKGRFTISRDNAKNTVYLQLNILKPEDTAVYYCAARPYPHSAYEGDYWGRGTQVTVSS | low polyreactivity
QVQLVESGVGLVQAGGSLRLSCAASGRTFSRNAMGWYRQSPGKERELVATISRGGGITFYADSVKGRFTISRDNAKNNVYLQMKSLKPEDTAVYYCNADVRYVGLRRIVDYWGLGTQVTVSS | high polyreactivity
QVQLVESGGGLVQAGGSLRLSCDASGLIFYDNMGWYRQAPGKERELVAAISSSGGSTSYADSVKGRFTISRDNAKNTVYLQMNSLKPEDTAVYYCAAELGYIGSYYWIYYYWGQGTQGTVSS | low polyreactivity
QVQLVESGGGLVQAGGSLRLSCAASGGIFDRYAMGWYRPAPGKERELVAGITWSGGRTYYADSVKGRFTISRDNAKNTVYLQMNSLKPEDTAVYYCAASLYTWTYQPVYYRDGYWGQGTQVTVSS | low polyreactivity
QVQLVESGGGLVQAGGSLRLSCAASGSTFQHYAMGWYRQAPGKERELVAAITNTGGSTYYADSVKGRFTISRDNAMNTVYLLMNSLKPEDTAVYYCATVGRRYGYPGYYWGQGTQVTVSS | low polyreactivity
QVQLVESGGGLVQAGGSLRLRCAASGRIFPDNAMGGYRQAPGKERELVAAITYSGGSTSYADSVKGRFTISRDNAKNTVYLQMNRLKPEDTAVYYCIKAGGTSYDYVRVDKFPGVYWGQGTQVTVSS | low polyreactivity
QVQLVESGGGLVQAGGSLRLSCAASGSTVGSYAMGWYRQAPGKERELVAAITLRTDSTYYADSVKGRFTISRDNAKNTVYLQMNSLKPEETAVYYCARRYRYGYDYWGQGTQVTVSS | low polyreactivity
QVQLVESGGGLVQAGGSLRLSCAASGRIFITNTMGWSRPAPGKERELVAAISRTGGSTYYADSVKGRFTISRDNAKNTVYLQMNSLKPEDTAVYYCAKRYYGSPQLRYYYWGQGTQVTVSS | high polyreactivity
QVQLVESGGGLVQAGGSLRLSCAASGSIFVVNARGWYRQAPGKERELVAAITKNGGRTYYADSVKGRFTISRDNAKNTVYLQMNSLKPEDTAVYYCNTVKGHGGYYGYDYWGQGTQVSVSS | high polyreactivity
QVQLVESGGGLVQAGGSLRLSCAGSGINFHLYAMGWYRQAPGKERELVAAISWNGSSTYYADSVKGRFTISRDNAKNTVYLQMNSLKPEDTAVYYCAASYGYFEDYGYWGQGNQVTVSS | low polyreactivity
